Laboratory results published in paper PMC7429351, “Comparison of ligand binding and conformational stability of human calmodulin with its homolog from the malaria parasite Plasmodium falciparum” (FASEB BioAdvances, 2020).

What was measured:
[1] = molecular target: Myosin light chain kinase (MLCK), human, recombinant, GST-tagged (human) (UniProt Q15746)
[2] = molecular target: Calcineurin (PPase-2B, CaN) (bovine)
[3] = molecular target: Phosphodiesterase I, 3',5'-cyclic-nucleotide-specific (PDE) (bovine) (UniProt P14100)
Sequence of Phosphodiesterase I, 3',5'-cyclic-nucleotide-specific (PDE) (bovine) (P14100 whole entry): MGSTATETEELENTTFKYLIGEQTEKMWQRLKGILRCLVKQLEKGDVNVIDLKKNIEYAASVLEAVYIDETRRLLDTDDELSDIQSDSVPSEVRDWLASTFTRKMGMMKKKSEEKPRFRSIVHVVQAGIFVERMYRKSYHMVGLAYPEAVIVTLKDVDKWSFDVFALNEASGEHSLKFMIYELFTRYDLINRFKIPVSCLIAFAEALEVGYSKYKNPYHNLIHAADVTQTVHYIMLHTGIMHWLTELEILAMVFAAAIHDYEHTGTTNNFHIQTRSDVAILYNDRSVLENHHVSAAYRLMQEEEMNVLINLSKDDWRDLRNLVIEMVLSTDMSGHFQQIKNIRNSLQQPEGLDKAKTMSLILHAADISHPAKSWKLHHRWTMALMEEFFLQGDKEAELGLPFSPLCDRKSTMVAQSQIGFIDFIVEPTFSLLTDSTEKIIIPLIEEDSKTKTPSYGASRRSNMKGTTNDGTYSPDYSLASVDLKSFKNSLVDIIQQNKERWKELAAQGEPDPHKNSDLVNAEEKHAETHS

Sequence of Myosin light chain kinase (MLCK), human, recombinant, GST-tagged (human) (Q15746 whole entry): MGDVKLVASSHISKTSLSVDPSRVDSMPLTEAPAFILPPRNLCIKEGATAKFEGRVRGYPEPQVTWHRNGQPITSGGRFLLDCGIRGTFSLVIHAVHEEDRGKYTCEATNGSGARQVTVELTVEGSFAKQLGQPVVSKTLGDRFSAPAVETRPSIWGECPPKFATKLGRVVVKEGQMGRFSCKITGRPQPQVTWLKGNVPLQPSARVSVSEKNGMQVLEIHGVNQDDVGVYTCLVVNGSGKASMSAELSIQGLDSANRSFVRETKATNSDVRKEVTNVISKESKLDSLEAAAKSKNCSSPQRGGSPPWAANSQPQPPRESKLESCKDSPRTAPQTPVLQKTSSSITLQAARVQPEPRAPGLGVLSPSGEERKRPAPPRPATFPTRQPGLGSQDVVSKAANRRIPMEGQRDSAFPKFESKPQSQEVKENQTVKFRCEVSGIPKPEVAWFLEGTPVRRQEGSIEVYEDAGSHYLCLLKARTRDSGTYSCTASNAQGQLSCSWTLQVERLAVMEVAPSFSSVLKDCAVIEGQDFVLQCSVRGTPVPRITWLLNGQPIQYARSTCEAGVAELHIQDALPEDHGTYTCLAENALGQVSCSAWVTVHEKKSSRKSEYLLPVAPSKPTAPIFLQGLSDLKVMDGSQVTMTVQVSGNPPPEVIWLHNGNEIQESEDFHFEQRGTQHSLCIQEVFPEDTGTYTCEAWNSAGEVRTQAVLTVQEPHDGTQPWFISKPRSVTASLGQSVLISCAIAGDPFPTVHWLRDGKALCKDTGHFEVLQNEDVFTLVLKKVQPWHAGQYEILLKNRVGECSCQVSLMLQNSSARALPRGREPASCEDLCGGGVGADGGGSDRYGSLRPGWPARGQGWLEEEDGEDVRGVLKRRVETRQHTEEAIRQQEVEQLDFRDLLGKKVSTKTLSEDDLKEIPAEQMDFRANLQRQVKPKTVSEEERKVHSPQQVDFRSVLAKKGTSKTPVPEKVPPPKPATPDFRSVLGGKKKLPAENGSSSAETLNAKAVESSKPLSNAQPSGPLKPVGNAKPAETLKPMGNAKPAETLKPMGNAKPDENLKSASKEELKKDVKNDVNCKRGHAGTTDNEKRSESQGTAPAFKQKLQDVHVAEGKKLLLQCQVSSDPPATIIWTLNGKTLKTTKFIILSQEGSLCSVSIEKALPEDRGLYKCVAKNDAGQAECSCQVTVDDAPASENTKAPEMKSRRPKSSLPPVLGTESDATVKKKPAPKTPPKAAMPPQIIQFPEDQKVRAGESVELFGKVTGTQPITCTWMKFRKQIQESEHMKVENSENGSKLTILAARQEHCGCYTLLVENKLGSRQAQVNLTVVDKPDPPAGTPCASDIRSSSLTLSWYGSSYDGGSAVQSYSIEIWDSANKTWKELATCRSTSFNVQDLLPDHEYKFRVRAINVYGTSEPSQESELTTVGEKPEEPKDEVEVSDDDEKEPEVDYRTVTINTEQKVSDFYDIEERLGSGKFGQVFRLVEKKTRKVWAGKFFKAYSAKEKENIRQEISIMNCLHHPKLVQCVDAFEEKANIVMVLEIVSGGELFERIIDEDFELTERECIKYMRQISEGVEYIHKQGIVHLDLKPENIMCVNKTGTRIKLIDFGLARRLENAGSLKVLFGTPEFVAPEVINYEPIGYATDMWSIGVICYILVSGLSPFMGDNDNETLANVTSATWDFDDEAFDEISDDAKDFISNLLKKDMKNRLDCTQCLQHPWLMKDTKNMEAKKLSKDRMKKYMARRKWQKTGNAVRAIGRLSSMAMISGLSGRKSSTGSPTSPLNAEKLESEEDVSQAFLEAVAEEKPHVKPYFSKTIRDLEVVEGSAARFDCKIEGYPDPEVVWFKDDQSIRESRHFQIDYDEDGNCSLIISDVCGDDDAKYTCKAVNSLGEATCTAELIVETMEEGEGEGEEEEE

## Human recombinant calmodulin (CaM) (from UniProt P0DP23 1-149) (natural protein)
[1]
  activation of MLCK kinase activity (ADP-Glo luminescence, room temperature, 0.5 mmol/L CaCl2) against the CaM concentration, EC50: 5.6 nM
[2]
  activation of CaN phosphatase activity (PNPP dephosphorylation) by CaM, fold over the basal activity: 2.34 fold
  activation of CaN phosphatase activity (PNPP dephosphorylation, 28°C) against the CaM concentration, EC50: 0.67 nM
[3]
  activation of PDE activity (mant-cGMP hydrolysis, 25°C, 150 nmol/L CaM, 6.5 nmol/L PDE, 1 mmol/L CaCl2), fold over the basal activity: 2 fold
